US20250064951A1, “DENDRITIC POLYELECTROLYTE ZWITTERIONS, JANUS-TYPE CONJUGATE COMPRISING SAME AND USES THEREOF” (ArtProBio Co., Ltd., priority 2023, published 2025)
Ends that are not written are not given here.

Columns and labels:
HeLa cells = test: Cytotoxicity, WST-8 assay in HeLa cells; type: cell-based; conditions: 0, 2, 4, 8, 16, 32, 64 and 128 μM, 4 hours
Experimental: Since DPZ contains both polyelectrolytes and zwitterions in a single molecule, it is expected to have non-fouling property and low toxicity, while also having advantageous intracellular delivery efficiency due to its interaction with the cell membrane. Cytotoxicity was analyzed first. HeLa cells were subcultured in DMEM supplemented with 10% FBS (fetal bovine serum), dispensed into each well at 1×10^4 cells/well, and cultured at 37° C. for 24 hours. The cells were treated with the samples (Examples 1-1 to 1-6 or Comparative Examples 3-1 and 3-2) at various concentrations and then cultured at 37° C. for 4 hours. WST-8 solution was added to the cultured cells, and absorbance was measured at 450 nm with a microplate reader (Perkin-Elmer, USA) 4 hours later.
Cytotoxicity was analyzed using HeLa cells. Specifically, HeLa cells were subcultured in DMEM supplemented with 10% FBS (fetal bovine serum), dispensed into each well at 1×10^4 cells/well, and cultured at 37° C. for 24 hours. The cells were treated with the samples (Examples 3-1 to 3-6) at various concentrations and then cultured at 37° C. for 4 hours. WST-8 solution was added to the cultured cells, and absorbance was measured at 450 nm with a microplate reader (Perkin-Elmer, USA) 4 hours later.

HCT116 cells [1] = test: Intracellular delivery efficiency in HCT116 cells by flow cytometry; type: cell-based, human; conditions: summary statement, b342
Experimental: To confirm the intracellular delivery efficiency, HCT116 cells were subcultured in DMEM supplemented with 10% FBS (fetal bovine serum), dispensed into each well at 1-3×10^4 cells/well, and cultured at 37° C. for 24 hours. The cells were treated with the (+6)2(−6)2 conjugate_FAM prepared in Example 6-2 at a concentration of 10 μM and incubated at 37° C. for 4 hours. Afterwards, the cells were washed with Dulbecco's phosphate-buffered saline (DPBS), trypsinized, resuspended in DPBS supplemented with 10% cell dissociation buffer (GIBCO) and 1% FBS, and then analyzed using a flow cytometer (BD LSR II SORT flow cytometer, BD Bioscience, USA) for analysis of intracellular fluorescence.

BSA = BSA (Bos taurus, UniProt P02769); test: EMSA of non-fouling property for proteins (BSA); type: binding
Description: The mixing ratio was R/B ratio, wherein the R/B ratio was arginine/BSA ratio. […] For visualization, the bands were stained with Coomassie brilliant blue R-250.
The mixing ratio was peptide/BSA ratio, wherein the peptide/BSA ratio was peptide/BSA (w/w). […] For visualization, the bands were stained with Coomassie brilliant blue R-250.

[2] = DLS size, size distribution and zeta potential; type: physicochemical; conditions: for Diameter (nm) in DW / Diameter (nm) in PBS: DLS
yeast rRNA = test: EMSA of non-fouling property for rRNA; type: binding; conditions: 200 ng yeast rRNA; various peptide/RNA (w/w) ratios; room temperature 1 hour
Experimental: It was confirmed through EMSA (electrophoretic mobility shift assay) that the dendrimer structure of the present disclosure has non-fouling property for various genetic materials present in the body when administered in vivo. 200 ng of yeast rRNA (ribosomal RNA) was prepared as a model genetic material and mixed with the Janus-type dendritic polyelectrolyte zwitterion of Example 5-4 (JDPZ ((+6)2(−6)2 conjugate_1)) at various concentration ratios. The mixing ratio was peptide/RNA ratio, wherein the peptide/RNA ratio was peptide/RNA (w/w). After reacting the mixture at room temperature for 1 hour, electrophoresis was performed on a 2% agarose gel at 90 V for 100 minutes. For visualization, the bands were stained with SYBR Gold nucleic acid gel stain (Invitrogen, USA).
The Janus-type dendrimer structure of Comparative Example 1-2 ((+3)2(Ø3)2 conjugate) was used as a control group instead of the JDPZ of Example 5-4 ((+6)2(−6)2 conjugate_1).

HCT116 cells [3] = test: Cytotoxicity, WST-8 assay in HCT116 cells; type: cell-based, human; conditions: 0, 1.25, 2.5, 5, 10 μM, 4 hours
Experimental: The cytotoxicity of the G2 Janus-type dendritic polyelectrolyte zwitterions according to the present disclosure (JDPZ, (+M)2(−M)2 conjugate_1) was analyzed using HCT116 cells (human colon cancer cells). Specifically, HCT116 cells were subcultured in DMEM supplemented with 10% FBS (fetal bovine serum), dispensed into each well at 1×10^4 cells/well, and cultured at 37° C. for 24 hours. The cells were treated with the samples (Example 5-1 and Comparative Examples 1-1 to 1-3) at various concentrations (0, 1.25, 2.5, 5, 10 μM), respectively, and incubated at 37° C. for 4 hours. WST-8 solution was added to the cultured cells, and absorbance was measured at 450 nm with a microplate reader (Perkin-Elmer, USA) 4 hours later.

[4] = 1 μg BSA, various peptide/BSA (w/w) ratios, room temperature 1 hour

Chain of BSA (P02769 25-607): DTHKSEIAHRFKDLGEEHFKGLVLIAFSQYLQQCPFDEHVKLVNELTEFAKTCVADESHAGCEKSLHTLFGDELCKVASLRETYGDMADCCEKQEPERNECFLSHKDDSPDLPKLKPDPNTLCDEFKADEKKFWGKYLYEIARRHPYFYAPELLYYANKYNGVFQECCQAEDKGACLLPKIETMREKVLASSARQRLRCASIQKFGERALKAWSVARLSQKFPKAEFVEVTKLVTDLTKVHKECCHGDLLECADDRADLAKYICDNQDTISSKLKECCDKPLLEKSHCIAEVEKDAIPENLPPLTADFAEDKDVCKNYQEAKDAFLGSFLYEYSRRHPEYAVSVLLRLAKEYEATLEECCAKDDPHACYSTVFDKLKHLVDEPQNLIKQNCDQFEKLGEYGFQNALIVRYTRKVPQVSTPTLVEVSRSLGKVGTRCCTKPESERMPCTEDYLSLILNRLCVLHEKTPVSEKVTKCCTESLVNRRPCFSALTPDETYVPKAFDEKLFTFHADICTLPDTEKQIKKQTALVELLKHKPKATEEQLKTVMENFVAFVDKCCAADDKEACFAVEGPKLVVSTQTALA

Molecule: Comparative Example 3-1: peptide in which cationic and anionic amino acids are linked alternately (Ac-ERERERERERERERERERERERERERER)
- cytotoxicity (HeLa cells): do not cause toxicity in the cells

Molecule: CC(=O)NCCCCCCCCCCCC(=O)NCCCCC(NC(=O)CCCCCCCCCCCNC(C)=O)C(=O)NCCCCC(NC(=O)C(CCCCNC(=O)CCCCCCCCCCCNC(C)=O)NC(=O)CCCCCCCCCCCNC(C)=O)C(=O)NCCCCC(NC(=O)C(CCCCNC(=O)C(CCCCNC(=O)C(CO)NC(=O)C(CO)NC(=O)C(CO)NC(C)=O)NC(=O)C(CCCNC(=N)N)NC(=O)C(CCCNC(=N)N)NC(=O)C(CCCNC(=N)N)NC(C)=O)NC(=O)C(CCCCNC(=O)C(CO)NC(=O)C(CO)NC(=O)C(CO)NC(C)=O)NC(=O)C(CCCNC(=N)N)NC(=O)C(NCCNC(=N)N)NC(=O)C(CCCNC(=N)N)NC(C)=O)C(N)=O (stereo not drawn) [Comparative Example 1-2, reference compound]
- cellular delivery efficiency (HCT116 cells [1]): high cellular delivery efficiency
- binding to BSA (non-fouling property), EMSA (BSA; [4]): binds easily to BSA
- Net charge [2]: +6
- Zeta potential (mV) [2]: +52.8 mV
- Diameter (nm) in DW [2]: 742.3 nm
- Diameter (nm) in PBS [2]: 5,688.2 nm
- interaction with rRNA (non-fouling property), EMSA (yeast rRNA): forms a non-specific interaction with rRNA even under the low-concentration rRNA condition
- cytotoxicity (HCT116 cells [3]): very high toxicity

Molecule: CC(=O)NCCCCCCCCCCCC(=O)NCCCCC(NC(=O)CCCCCCCCCCCNC(C)=O)C(=O)NCCCCC(NC(=O)C(CCCCNC(=O)CCCCCCCCCCCNC(C)=O)NC(=O)CCCCCCCCCCCNC(C)=O)C(=O)NCCCCC(NC(=O)C(CCCCNC(=O)C(CCCCNC(=O)C(CCCNC(=N)N)NC(=O)C(CCCNC(=N)N)NC(=O)C(CCCNC(=N)N)NC(C)=O)NC(=O)C(CCCNC(=N)N)NC(=O)C(CCCNC(=N)N)NC(=O)C(CCCNC(=N)N)NC(C)=O)NC(=O)C(CCCCNC(=O)C(CCCNC(=N)N)NC(=O)C(CCCNC(=N)N)NC(=O)C(CCCNC(=N)N)NC(C)=O)CC(=O)C(CCCNC(=N)N)NC(=O)C(CCCNC(=N)N)NC(=O)C(CCCNC(=N)N)NC(C)=O)C(N)=O (stereo not drawn) [Comparative Example 1-1]
- cellular delivery efficiency (HCT116 cells [1]): high cellular delivery efficiency
- cytotoxicity (HCT116 cells [3]): very high toxicity

Molecule: CC(=O)NCCCCCCCCCCCC(=O)NCCCCC(NC(=O)CCCCCCCCCCCNC(C)=O)C(=O)NCCCCC(NC(=O)C(CCCCNC(=O)CCCCCCCCCCCNC(C)=O)NC(=O)CCCCCCCCCCCNC(C)=O)C(=O)NCCCCC(NC(=O)C(CCCCNC(=O)C(CCCCNC(=O)[C@H](CCC(=O)O)NC(=O)[C@H](CCC(=O)O)NC(=O)[C@H](CCC(=O)O)NC(=O)[C@H](CCC(=O)O)NC(=O)[C@H](CCC(=O)O)NC(=O)[C@H](CCC(=O)O)NC(C)=O)NC(=O)[C@H](CCCCC(=N)N)NC(=O)[C@H](CCCNC(=N)N)NC(=O)[C@H](CCCNC(=N)N)NC(=O)[C@H](CCCNC(=N)N)NC(=O)[C@H](CCCNC(=N)N)NC(=O)[C@H](CCCNC(=N)N)NC(C)=O)NC(=O)C(CCCCNC(=O)[C@H](CCCNC(=N)N)NC(=O)[C@H](CCCNC(=N)N)NC(=O)[C@H](CCCNC(=N)N)NC(=O)[C@H](CCCNC(=N)N)NC(=O)[C@H](CCCNC(=N)N)NC(=O)[C@H](CCCNC(=N)N)NC(C)=O)NC(=O)[C@H](CCC(=O)O)NC(=O)[C@H](CCC(=O)O)NC(=O)[C@H](CCC(=O)O)NC(=O)[C@H](CCC(=O)O)NC(=O)[C@H](CCC(=O)O)NC(=O)[C@H](CCC(=O)O)NC(C)=O)C(N)=O (stereo partly drawn) [Example 5-4]
- binding to BSA (non-fouling property), EMSA (BSA; [4]): hardly binds to BSA
- Net charge [2]: 0
- Zeta potential (mV) [2]: +35.2 mV
- Diameter (nm) in DW [2]: 649.0 nm
- Diameter (nm) in PBS [2]: 128.9 nm
- interaction with rRNA (non-fouling property), EMSA (yeast rRNA): forms interaction only under high-concentration conditions in which rRNA is present in an amount exceeding 10 times

Molecule: CC(=O)NCCCCCCCCCCCC(=O)NCCCCC(NC(=O)CCCCCCCCCCCNC(C)=O)C(=O)NCCCCC(NC(=O)C(CCCCNC(=O)CCCCCCCCCCCNC(C)=O)NC(=O)CCCCCCCCCCCNC(C)=O)C(=O)NCCCCC(NC(=O)C(CCCCNC(=O)C(CCCCNC(=O)[C@H](CCC(=O)O)NC(=O)[C@H](CCC(=O)O)NC(=O)C(CCC(=O)O)NC(C)=O)NC(=O)[C@H](CCCCC(=N)N)NC(=O)[C@H](CCCNC(=N)N)NC(=O)[C@H](CCCNC(=N)N)NC(C)=O)NC(=O)C(CCCCNC(=O)[C@H](CCCNC(=N)N)NC(=O)[C@H](CCCNC(=N)N)NC(=O)[C@H](CCCNC(=N)N)NC(C)=O)NC(=O)[C@H](CCC(=O)O)NC(=O)[C@H](CCC(=O)O)NC(=O)[C@H](CCC(=O)O)NC(C)=O)C(N)=O (stereo partly drawn) [Example 5-1]
- Net charge [2]: 0
- Zeta potential (mV) [2]: +42.3 mV
- Diameter (nm) in DW [2]: 109.8 nm
- Diameter (nm) in PBS [2]: 75.4 nm
- cytotoxicity (HCT116 cells [3]): does not exhibit cytotoxicity

Molecule: Ac-EEEEEEEEEEEERRRRRRRRRRRR-NH2 [Comparative Example 3-2]
- cytotoxicity (HeLa cells): do not cause toxicity in the cells

Molecule: linear peptide R12: linear peptide with 12 arginines, same number of cationic residues as Example 1-6 (RRRRRRRRRRRR; not fully specified (some residues))
- binding to BSA (non-fouling property), EMSA (BSA; 0.5 μg BSA, various R/B (arginine/BSA) ratios, room temperature 12 hours): interacts with BSA and induces EMS
